Experimental data from patent publication US20230257447A1 (published 2023).

B1: C44 (TCR, V domains shown)
Valpha: AQTVTQSQPEMSVQEAETVTLSCTYDTSESDYYLFWYKQPPSRQMILVIRQEAYKQQNATENRFSVNFQKAAKSFSLKISDSQLGDAAMYFCAYRAFYTGANSKLTFGKGITLSVRP
Vbeta: DAGVTQSPTHLIKTRGQQVTLRCSPKSGHDTVSWYQQALGQGPQFIFQYYEEEERQRGNFPDRFSGHQFPNYSSELNVNALLLGDSALYLCASSFFRGEGNQPQHFGDGTRLSIL
B2: C45 (TCR, V domains shown)
Valpha: DQQVKQNSPSLSVQEGRISILNCDYTNSMFDYFLWYKKYPAEGPTFLISISSIKDKNEDGRFTVFLNKSAKHLSLHIVPSQPGDSAVYFCAASAWNTGNQFYFGTGTSLTVIP
Vbeta: KAGVTQTPRYLIKTRGQQVTLSCSPISGHRSVSWYQQTPGQGLQFLFEYFSETQRNKGNFPGRFSGRQFSNSRSEMNVSTLELGDSALYLCASSLAGYKQETQYFGPGTRLLVL

Molecular target: T1, CMV phosphoprotein pp65 (SEQ 34) peptide on HLA-A*11:01 (human)
T1 peptide: ATVQGQNLK
Assay: multimer staining

Binder	binding result
B1	recognises
B2	recognises
